Assay results taken from patent publication US20200407467.

Tests used:
[1] = test system: T7-SEPARATE PreScission-cleavable clone, multivalent display (mid-copy vector)
[2] = test system: T7-SEPARATE PreScission-cleavable clone, monovalent display (T7Select1-2b)
[3] = test system: uncleavable negative control clone (randomly selected 90-aa human peptide from the proteome library)
[4] = test system: Fibrinogen (peptides of the human library)

Substance: PreScission enzyme (human rhinovirus 3C protease, GE Life Sciences)
- phage particles recaptured, percent of pre-immobilized phage particles [1]: up to 24% and 22.5%, respectively
- phage particles released, percent of pre-immobilized phage particles [1]: up to 24% and 22.5%, respectively
- signal-to-noise ratio (highest PreScission concentration versus mock digest) [1]: 11.9
- phage particles recaptured, percent of pre-immobilized phage particles [2]: up to 53% and 43%, respectively
- phage particles released, percent of pre-immobilized phage particles [2]: up to 53%
- recapture of the cleavable peptide spiked 1 to 100 into the human library, fold increase versus mock digest [2]: 26-fold increase
- signal-to-noise ratio (highest PreScission concentration versus mock digest) [2]: 23.4
- phage particles recaptured, percent of immobilized phage particles [3]: ~1% of the immobilized phage particles were similarly recaptured, whether the PreScission enzyme was included in the digest reaction or not

Substance: Thrombin
- enrichment in SEPARATE (human library digest) [4]: did not score in the assay, and this was true for other canonical enzyme-substrate pairs such as Thrombin/Fibrinogen
